Paper PMC2119167 (The Journal of Experimental Medicine, 1992)

Molecular target: the molecule itself
Assay: SEC

B1: platelet membrane GMP-140 (P-selectin) (natural protein)
chain: WTYHYSTKAYSWNISRKYCQNRYTDLVAIQNKNEIDYLNKVLPYYSSYYWIGIRKNNKTWTWVGTKKALTNEAENWADNEPNNKRNNEDCVEIYIKSPSAPGKWNDEHCLKKKHALCYTASCQDMSCSKQGECLETIGNYTCSCYPGFYGPECEYVRECGELELPQHVLMNCSHPLGNFSFNSQCSFHCTDGYQVNGPSKLECLASGIWTNKPPQCLAAQCPPLKIPERGNMTCLHSAKAFQHQSSCSFSCEEGFALVGPEVVQCTASGVWTAPAPVCKAVQCQHLEAPSEGTMDCVHPLTAFAYGSSCKFECQPGYRVRGLDMLRCIDSGHWSAPLPTCEAISCEPLESPVHGSMDCSPSLRAFQYDTNCSFRCAEGFMLRGADIVRCDNLGQWTAPAPVCQALQCQDLPVPNEARVNCSHPFGAFRYQSVCSFTCNEGLLLVGASVLQCLATGNWNSVPPECQAIPCTPLLSPQNGTMTCVQPLGSSSYKSTCQFICDEGYSLSGPERLDCTRSGRWTDSPPMCEAIKCPELFAPEQGSLDCSDTRGEFNVGSTCHFSCDNGFKLEGPNNVECTTSGRWSATPPTCKGIASLPTPGVQCPALTTPGQGTMYCRHHPGTFGFNTTCYFGCNAGFTLIGDSTLSCRPSGQWTAVTPACRAVKCSELHVNKPIAMNCSNLWGNFSYGSICSFHCLEGQLLNGSAQTACQENGHWSTTVPTCQAGPLTIQEALTYFGGAVASTIGLIMGGTLLALLRKRFRQKDDGKCPLNPHSHLGTYGVFTNAAFDPSP
  stoichiometry N: 4
